Results from the MegaScale stability set (Tsuboyama et al. 2023).

B1: HEEH_KT_rd6_3632 (parent)
chain: DAEELIELVERALKEGREIILLGVRITSEEAGKWFIEWIRRFL
B2: EEHEE_rd4_0363 (parent)
chain: VTVDIKGMEYHFDNPEEAKKFAERMAKELGGELKVENGTLKVE

Variants of: B1
Assay: folding stability dG (cDNA display proteolysis); higher = more stable
Settings: PBS, room temperature

Folding stability dG [kcal/mol], by site and new letter:
D1: S 3.98 | K 4.04 | R 4.12 | N 3.96 | E 3.63 | I 4.2 | H 4.04 | M 4.11 | G 3.9 | F 4.2 | L 4.31 | T 4 | Q 3.93 | Y 4.26 | P 3.89 | V 4.07 | A 3.97 | W 4.64
A2: F 4.2 | D 3.4 | E 3.44 | G 3.42

Variants of: B2
Assay: as above
Settings: PBS, room temperature

Folding stability dG [kcal/mol] of substitutions, site by site:
T39: L 2.13 | A 1.6 | K 2.43 | F 1.88 | W 1.66 | E 1.2 | D 1.17 | H 1.93 | C 1.89 | S 1.69 | G 1.4 | Y 1.95 | M 2.24 | R 2.17 | I 2.81 | N 1.84 | P 0.866 | V 2.77 | Q 1.91
E43: V 3.14 | S 2.11 | H 2.21 | Q 2.07 | W 2.64 | M 2.49 | N 1.85 | T 2.38 | Y 2.91 | A 1.94 | D 1.91 | P 1.16 | C 2.81 | K 1.89 | L 2.66 | R 2.04 | I 3.07 | G 1.91 | F 2.75
V42: Q 0.74 | M 0.942 | D 0.806 | H 0.832 | C 1.4 | G 0.841 | K 0.582 | F 1.02 | I 2 | S 0.916 | Y 0.816 | R 0.352 | W 1.06 | P 0.879 | N 0.799 | A 0.786 | E 0.783 | L 1.74 | T 0.943
G38: D 1.3 | Q 1.21 | H 1.25 | V 0.725 | R 0.518 | Y 0.501 | S 1.19 | L 1.02 | P 0.815 | C 1.98 | K 0.662 | W 0.438 | I 0.967 | M 1.1 | F 0.552 | T 1.17 | E 1.13 | A 1.13 | N 1.68
L29: Y 1.47 | H 1.23 | G 0.895 | S 1.12 | A 0.915 | D 0.74 | R 0.668 | Q 1.06 | N 1.05 | V 1.14 | P 0.59 | E 0.835 | I 1.57 | W 1.34 | K 0.78 | T 1.37 | M 1.69 | F 1.55
K27: S 1.81 | Y 2.27 | R 2.11 | T 1.7 | Q 2.09 | W 2.28 | P 0.089 | N 1.75 | M 2.19 | V 1.82
V35: F 2.38 | Y 2.48 | T 1.72 | C 2.78 | L 1.93 | E 1.96 | W 3.09 | A 1.53 | N 1.73 | R 1.25 | P 0.972 | Q 1.62 | G 1.2 | M 2 | D 1.59 | K 1.3 | S 1.61 | H 1.57 | I 2.27
K34: I 2.28 | V 2.26 | L 1.77 | Y 1.98 | F 2 | G 1.03 | E 1.02 | H 1.82 | T 1.9 | P 0.802 | N 1.41 | W 1.82 | A 1.33 | D 1.01 | S 1.68 | Q 1.42 | C 1.95 | M 1.66 | R 2.21
G30: M 1.55 | V 1.01 | E 1.41 | H 1.74 | R 1.6 | K 1.66 | F 1.43 | T 1 | L 1.34 | D 1.52 | W 1.17 | A 1.43 | Q 1.57 | P 0.76 | Y 1.27 | N 1.93 | I 1 | S 1.5 | C 2.23
L33: N 0.799 | H 0.949 | W 1.78 | T 1.13 | D 0.762 | F 1.47 | K 0.659 | S 0.81 | I 2.48 | G 0.82 | R 0.462 | Q 0.872 | A 1.07 | E 0.789 | Y 1.43 | V 2.81 | M 1.61 | P 0.732
G31: T 1.38 | N 0.953 | L 2.57 | K 0.977 | A 2.15 | R 0.865 | Q 1.32 | M 2.32 | D 0.935 | F 2.03 | S 1.39 | I 1.88 | Y 2.12 | P 0.726 | H 1.27 | E 1.23 | C 2.36 | W 2.33 | V 1.85
E28: A 1.81 | R 1.81 | N 1.28 | P 0.477 | Y 2.07 | W 2.26 | L 2.34 | K 1.92 | S 1.4 | D 1.34 | M 2.03 | Q 1.75 | T 1.47 | V 1.88 | I 2.18 | H 1.73 | C 2.97 | G 0.795 | F 1.95
L40: F 1.94 | E 0.788 | A 0.864 | D 0.757 | M 1.67 | K 0.532 | C 1.47 | N 0.85 | V 1.35 | R 0.347 | Y 2.27 | I 2.6 | H 0.973 | G 0.861 | P 0.807 | T 0.992 | W 2.28 | S 0.813 | Q 0.884
E32: W 2.97 | H 2.45 | S 2.48 | I 2.89 | A 2.15 | T 2.81 | C 2.56 | Y 2.96 | V 2.84 | F 2.82 | R 2.23 | D 1.67 | G 1.4 | P 0.989 | K 2.43 | Q 2.41 | N 2.21 | M 2.31 | L 2.32
E36: D 1.77 | K 1.4 | V 2.54 | P 0.792 | C 2.26 | Y 1.86 | M 1.84 | L 2.02 | N 1.59 | R 1.45 | Q 1.89 | G 1.61 | I 2.43 | S 1.73 | W 1.52 | T 1.78 | H 1.83 | F 1.88 | A 1.74
K41: C 1.64 | P 0.852 | G 1.01 | R 2.17 | A 1.09 | Q 1.24 | M 1.63 | W 1.65 | F 2 | S 1.45 | T 1.73 | I 2.1 | H 1.61 | L 1.62 | V 2.02 | D 0.86 | Y 1.92 | E 0.957 | N 0.986
N37: H 1.52 | R 1.14 | I 1.14 | F 1.41 | Y 1.19 | L 1.52 | K 1.45 | D 1.63 | Q 1.46 | M 1.3 | G 1.97 | E 1.52 | A 1.4 | S 1.38 | W 0.999 | P 1.26 | V 1.14 | T 1.18 | C 2.07
